The source of these data is US20200199241A1 (Chugai, published 2020).

T1: FcγRIIb (human, UniProt P31994 43-217, limits assumed)
T1 construct: also called FcγIIB; CD32
T1 sequence: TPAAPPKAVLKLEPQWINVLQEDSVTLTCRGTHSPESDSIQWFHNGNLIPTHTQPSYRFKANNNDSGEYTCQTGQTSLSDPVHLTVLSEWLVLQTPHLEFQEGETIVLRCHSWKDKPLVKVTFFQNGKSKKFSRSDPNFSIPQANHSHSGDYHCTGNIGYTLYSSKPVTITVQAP

T2: FcγRIIb (human, UniProt P31994 43-217, limits assumed)
T2 construct: SPR analyte; also called FcγIIB; CD32
T2 sequence: T1 sequence

T3: FcγRIIa type H (human, UniProt P12318 36-217)
T3 construct: also called FcγRIIaH; FcγRIIa(H)
T3 sequence: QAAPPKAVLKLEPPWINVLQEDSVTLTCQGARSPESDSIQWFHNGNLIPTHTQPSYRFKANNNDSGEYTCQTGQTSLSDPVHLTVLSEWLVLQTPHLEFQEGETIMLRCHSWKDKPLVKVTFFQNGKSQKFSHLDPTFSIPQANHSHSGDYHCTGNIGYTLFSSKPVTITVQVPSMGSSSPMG

T4: FcγRIIa type R (human, UniProt P12318 36-217)
T4 construct: SPR analyte; also called FcγRIIaR; FcγRIIa(R)
T4 chain: T3 sequence with H133R

T5: FcγRIIa type H (human, UniProt P12318 36-217)
T5 construct: SPR analyte; also called FcγRIIaH
T5 sequence: T3 sequence

B1: IL6R-BP193/IL6R-L (antibody, human IgG1)
heavy: QVQLQESGPGLVKPSETLSLTCAVSGHSISHDHAWSWVRQPPGEGLEWIGFISYSGITNYNPSLQGRVTISRDNSKNTLYLQMNSLRAEDTAVYYCARSLARTTAMDYWGEGTLVTVSSASTKGPSVFPLAPSSKSTSGGTAALGCLVKDYFPEPVTVSWNSGALTSGVHTFPAVLQSSGLYSLSSVVTVPSSSLGTQTYICNVNHKPSNTKVDKKVEPKSCDKTHTCPPCPAPDLLGGDSVFLFPPKPKDTLMISRTPEVTCVVVDVSDEDGEVKFNWYVDGVEVHNAKTKPREEQYNSTYRVVSVLTVLHQDWLNGKEYKCKVSNKALPKPIEKTISKAKGQPREPQVYTLPPSRDELTKNQVSLTCLVKGFYPSDIAVEWESNGQPENNYKTTPPVLDSDGSFFLYSKLTVDKSRWQQGNVFSCSVMHEALHNHYTQESLSLSP
light: DIQMTQSPSSLSASVGDRVTITCRASQDISSYLNWYQQKPGKAPKLLIYYTSRLHSGVPSRFSGSGSGTDFTFTISSLQPEDIATYYCQQGNTLPYTFGQGTKVEIK
notes: Anti-IL-6R human IgG1 variant; copies: 2 + 2
B2: IL6R-2B253/IL6R-L (antibody, human IgG1)
heavy: B1 heavy with D270H, G273P, V325M, K332A
light: B1 light
B3: IL6R-BP129/IL6R-L (antibody, human IgG1)
heavy: B1 heavy with D270H, G273P, Y298D
light: B1 light
B4: IL6R-BP144/IL6R-L (antibody, human IgG1)
heavy: B1 heavy with D235E, G239D, D270H, G273P, K328A, K332A
light: B1 light
B5: IL6R-BP148/IL6R-L (antibody, human IgG1)
heavy: B1 heavy with L236Y, G239D, D270H, G273P, K328A
light: B1 light
B6: IL6R-BP176/IL6R-L (antibody, human IgG1)
heavy: B1 heavy with D270H, G273P, K328D
light: B1 light
B7: IL6R-BP084/IL6R-L (antibody, human IgG1)
heavy: B1 heavy with D235E, D270H, G273P, V325M
light: B1 light
B8: IL6R-BP181/IL6R-L (antibody, human IgG1)
heavy: B1 heavy with D270H, K328A
light: B1 light
B9: IL6R-2B261/IL6R-L (antibody, human IgG1)
heavy: B1 heavy with D270H, G273P, Y298D, K332A
light: B1 light
B10: IL6R-BP089/IL6R-L (antibody, human IgG1)
heavy: B1 heavy with D235E, L236Y, D270H, G273P, K328A
light: B1 light
B11: IL6R-BP085/IL6R-L (antibody, human IgG1)
heavy: B1 heavy with D235E, G239D, D270H, G273P
light: B1 light
B12: IL6R-BP083/IL6R-L (antibody, human IgG1)
heavy: B1 heavy with D235E, D270H, G273P, Y298D
light: B1 light
B13: IL6R-BP145/IL6R-L (antibody, human IgG1)
heavy: B1 heavy with D235E, L236Y, G239D, D270H, G273P, K332A
light: B1 light
B14: IL6R-BP132/IL6R-L (antibody, human IgG1)
heavy: B1 heavy with D270H, G273P, K328A
light: B1 light
B15: IL6R-BP088/IL6R-L (antibody, human IgG1)
heavy: B1 heavy with D235E, G239D, D270H, G273P, K328A
light: B1 light
B16: IL6R-BP133/IL6R-L (antibody, human IgG1)
heavy: B1 heavy with L236Y, D270H, G273P
light: B1 light
B17: IL6R-BP147/IL6R-L (antibody, human IgG1)
heavy: B1 heavy with D235E, L236Y, G239D, D270H, G273P, K328A
light: B1 light
B18: IL6R-BP182/IL6R-L (antibody, human IgG1)
heavy: B1 heavy with D270H, Y298D
light: B1 light

Changes are numbered by the printed parent chain.

T8 sequence (P08637 other isoform, or with tags, fused parts or gaps limits assumed): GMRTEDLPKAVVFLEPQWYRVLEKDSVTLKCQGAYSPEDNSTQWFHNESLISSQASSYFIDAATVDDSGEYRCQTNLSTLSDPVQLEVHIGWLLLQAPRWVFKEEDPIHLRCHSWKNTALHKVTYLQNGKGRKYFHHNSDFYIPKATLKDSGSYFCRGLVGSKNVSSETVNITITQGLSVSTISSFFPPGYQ

The target of the first experiment is T1, FcγRIIb. Put plainly: ratio of SPR KD values, parent IL6R-B3/IL6R-L.
Source text: (§1) Furthermore, KD(IIaR)/KD(IIb) and KD(IIaH)/KD(IIb) in the table respectively represent the value obtained by dividing the KD value of each variant for FcγRIIaR by the KD value of each variant for FcγRIIb, and the value obtained by dividing the KD value of each variant for FcγRIIaH by the KD value of each variant for FcγRIIb. KD(IIb) of the parent polypeptide/KD(IIb) of the altered polypeptide refers to the value obtained by dividing the KD value of the parent polypeptide for FcγRIIb by the KD value of each variant for FcγRIIb.
Consider B1, for which the “KD(IIb) of the parent polypeptide/KD(IIb) of altered polypeptide” value (from here on “KD(IIb)”) was 25.5 fold.

For the next experiment, the target named is T2, FcγRIIb. Put plainly: ratio of SPR KDs; reference IL6R-B3/IL6R-L.
As for B2, the “KD(IIb)” value amounted to 7.2.
For the molecule B3, the “KD(IIb)” value turned out to be 6.
Consider B4, for which the “KD(IIb)” value worked out at 3.9.
Take B5: the “KD(IIb)” value was determined as 41.4.
On the same count and under the same terms, as for B6, the figure is 8.6.
Regarding B7, the “KD(IIb)” value worked out at 6.1.
Take B8: the “KD(IIb)” value was found to be 19.3.
The same measure, in the same setting: next, B9: 3.
Regarding B10, the “KD(IIb)” value was determined as 8.
Regarding B11, the “KD(IIb)” value came to 9.6.
As to B12, the “KD(IIb)” value was found to be 3.9.
The same measure, in the same setting: next, B13: 9.1.
The same measure, in the same setting: next, B14: 8.4; B15: 14.3; B16: 5.6.

In a further experiment the target is T1, FcγRIIb. As to the kind of experiment: SPR (Biacore), method of Example 14. For orientation: In SPR one partner is held on a chip, and binding of the other changes the refractive index at the surface.
Source text: as §1
Turning to B1, the Kd came to 0.12 µM. In other words, the sub-micromolar range.

The target in a further experiment is T6, FcγRIa (human, UniProt P12314 16-292, limits assumed).
T6 construct: also called CD64
Put plainly: SPR (Biacore), method of Example 14.
T6 sequence (P12314 16-292 limits assumed): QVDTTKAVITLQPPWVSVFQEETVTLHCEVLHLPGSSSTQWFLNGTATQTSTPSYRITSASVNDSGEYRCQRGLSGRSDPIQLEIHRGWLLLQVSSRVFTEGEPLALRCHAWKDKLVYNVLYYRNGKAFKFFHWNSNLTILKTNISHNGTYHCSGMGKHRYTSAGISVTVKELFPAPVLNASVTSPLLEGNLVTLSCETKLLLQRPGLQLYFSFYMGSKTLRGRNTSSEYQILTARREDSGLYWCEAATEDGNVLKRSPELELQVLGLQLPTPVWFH
Source text: as §1
Molecule B1 displayed a Kd of 0.0063 µM. That is a single-digit nanomolar value.

In the next experiment the target is T3, FcγRIIa type H. As to the kind of experiment: SPR (Biacore), method of Example 14.
Source text: as §1
As to B1, the Kd is 25 µM.

Another experiment concerns the target T4, FcγRIIa type R. Put plainly: SPR (Biacore), antibody captured, FcγR analyte.
Source text: as §1
With B2, the Kd was 5 µM.
Regarding B3, the dissociation constant Kd is 15 µM.
As to B4, the affinity, expressed as Kd, was 6.9 µM.
As for B5, the Kd turned out to be 1.1 µM. This Kd lies about 6.3-fold lower than the previous one.
Still for that read-out and setting: next, B6: 6.9 µM.
Same read-out and setting: as for B7, the figure is 7.2 µM.
In turn, B8 returned a Kd of 3.2 µM.
As for B10, the dissociation constant Kd was determined as 6.4 µM.
For the molecule B17, the Kd came to 0.89 µM.
As to B11, the Kd came out at 4.2 µM. Against the preceding molecule, the Kd is about 4.7-fold higher.
In turn, B13 came in with a dissociation constant (Kd) of 3.4 µM.
Same read-out and setting: next, B14: 8 µM; B15: 2.9 µM; B18: 2.6 µM.

The target in the next experiment is T7, FcγRIa (human, UniProt P12314 16-292, limits assumed).
T7 construct: SPR analyte; also called CD64
As to the kind of experiment: SPR (Biacore), antibody captured, FcγR analyte.
T7 sequence (P12314 16-292 limits assumed): as above
Source text: as §1
The molecule B2 came in with a Kd of 0.0014 µM.
On to B3, for which the equilibrium dissociation constant (Kd) was 0.025 µM.
For B4, binding was put at a Kd of 0.037 µM.
Consider B5, for which binding was put at a Kd of 0.089 µM. This Kd lies about 2.4-fold higher than the previous one.
B6 displayed a dissociation constant Kd of 0.0073 µM. Against the preceding molecule, the Kd is about 12-fold lower.
Molecule B7 returned a dissociation constant (Kd) of 0.007 µM.
Molecule B8 had a dissociation constant (Kd) of 0.0075 µM. This Kd and that of the molecule before are within 1.5-fold of each other.
B9 gave a Kd of 0.009 µM.
B10: the dissociation constant (Kd) is 0.063 µM.
Take B17: the dissociation constant Kd came out at 0.14 µM.
Still for that read-out and setting: next, B11: 0.29 µM.
For B12, the Kd amounted to 0.038 µM.
On to B13, for which the equilibrium dissociation constant (Kd) turned out to be 0.12 µM.
The molecule B14 yielded a Kd of 0.015 µM.
Molecule B15 showed a dissociation constant Kd of 0.39 µM.
Same read-out and setting: next, B16: 0.13 µM; B18: 0.01 µM.

A further experiment concerns the target T8, FcγRIIIa type V (human, UniProt P08637 17-208, limits assumed).
T8 construct: SPR analyte; allotype V158 was used here; also called FcγRIIIaV; FcγRIIIa(V)
As to the kind of experiment: SPR (Biacore), antibody captured, FcγR analyte.
Source text: as §1
The molecule B2 had a dissociation constant Kd of 50 µM. This lies in the double-digit micromolar range.
Molecule B3 showed a Kd of 75 µM.
B4: binding was put at a Kd of 55 µM.
B5 showed a Kd of 30 µM.
B6 showed an equilibrium dissociation constant (Kd) of 54 µM.
B7 came in with a Kd of 67 µM. The Kd values of the last two molecules are within 1.5-fold of each other.
For B8, the Kd was 57 µM.
B9 came in with a dissociation constant (Kd) of 73 µM. This Kd and that of the molecule before are within 1.5-fold of each other.
As for B10, the Kd was 51 µM.
B17 had a Kd of 33 µM.
On the same count and under the same terms, as for B11, the figure is 68 µM; as for B12, 66 µM; as for B13, 45 µM.
Molecule B14 showed a dissociation constant Kd of 58 µM.
Turning to B15, the Kd was determined as 57 µM. This Kd and that of the molecule before are within 1.5-fold of each other.
In the case of B16, binding was put at a Kd of 62 µM.
With B18, the Kd came to 58 µM. The Kd values of the last two molecules are within 1.5-fold of each other.

The next experiment has as its target T5, FcγRIIa type H. As to the kind of experiment: SPR (Biacore), antibody captured, FcγR analyte.
Source text: as §1
B2 yielded a Kd of 13 µM.
On the same count and under the same terms, as for B3, the figure is 40 µM; as for B4, 36 µM.
On to B5, for which the dissociation constant Kd is roughly 7 µM.
Take B6: the equilibrium dissociation constant (Kd) is 30 µM.
B7 yielded a dissociation constant Kd of 24 µM.
Take B8: the Kd is 26 µM.
Same read-out and setting: next, B9: 33 µM; B10: 20 µM; B17: 5.1 µM.
Take B11: the Kd amounted to 24 µM.
B12 showed a Kd of 44 µM.
On the same count and under the same terms, as for B13, the figure is 17 µM; as for B14, 30 µM; as for B15, 23 µM.
B16 came in with a Kd of 26 µM.
For the molecule B18, the Kd was determined as 28 µM.

The next experiment has as its target T2, FcγRIIb. Put plainly: SPR (Biacore), antibody captured, FcγR analyte.
Source text: as §1
For the molecule B3, the affinity, expressed as Kd, was 0.52 µM.
On the same count and under the same terms, as for B4, the figure is 0.79 µM.
Take B5: binding was characterised by a dissociation constant (Kd) of 0.075 µM.
With B6, the Kd was found to be 0.36 µM. Against the preceding molecule, the Kd is about 4.8-fold higher.
Take B7: the Kd was determined as 0.5 µM.
Turning to B8, the Kd was 0.16 µM.
Molecule B9 returned a Kd of 1 µM.
Consider B10, for which the Kd was 0.39 µM. Against the preceding molecule, the Kd is about 2.6-fold lower.
On to B17, for which the equilibrium dissociation constant (Kd) was 0.066 µM.
Regarding B11, the Kd turned out to be 0.32 µM.
The same measure, in the same setting: next, B12: 0.79 µM.
Molecule B13 had a dissociation constant (Kd) of 0.34 µM.
In turn, B14 yielded a Kd of 0.37 µM. This Kd and that of the molecule before are within 1.5-fold of each other.
The molecule B15 came in with an equilibrium dissociation constant (Kd) of 0.22 µM.
With B16, the affinity, expressed as Kd, was 0.56 µM.

As a reminder, the Kd is the constant that tells how readily two partners part at equilibrium. Read a high Kd as a looser complex.
